Tested on: MS2 coat protein
Assay: apparent KD of MS2 coat protein; designed switch direction (-1 OFF switch, 1 ON switch): -1; higher = weaker reporter binding
How it was run: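 Each step of the titration lasted 0.8–1.5 h at the lowest concentration and 10–20 min at the highest. The protein, SNAP-549-labelled MS2 coat protein, went from 0.7 or 1.5 nM doubling to 3 µM over RNA switches transcribed on Illumina chips by stalled E. coli RNA polymerase. Normalised cluster fluorescence was curve-fitted, and the per-design median over clusters is given as apparent KD.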

[1] = input ligand: microRNA oligo, concentration not stated
[2] = Eterna round: R95, input ligand: microRNA oligo, concentration not stated
[3] = Eterna round: R95, input ligand: FMN 200 uM
[4] = Eterna round: R95, input ligand: none

| Sequence | apparent KD of MS2 coat protein (input ligand: FMN 200 uM) [nM] | apparent KD of MS2 coat protein [1] [nM] | apparent KD of MS2 coat protein (input ligand: none) [nM] | apparent KD of MS2 coat protein [2] [nM] | apparent KD of MS2 coat protein [3] [nM] | apparent KD of MS2 coat protein [4] [nM] |
| --- | --- | --- | --- | --- | --- | --- |
| AGCUGUGGCCGAGGAUAUCUCAUAGUCCCAACCGAAAUAUAAUCGGACAUGAGGAUCACCCAUGUAGAGAAGGCGGUCUCAGCA [Eli eng2 - 071] (Eterna round: R96, puzzle: Exclusion NG 2) | 115 | 40.7 | 151 |  |  |  |
| GGCACACAUGUAGGAUAUCUGCACGUUUAGUGCAGAGAAGGACAUGAGGAUCACCCAUGUAAUUAAGAUCAAUUAUUAAGUGCC [ENG1/3-A2] (Eterna round: R96, puzzle: Exclusion NG 1) | 564 | 48.6 | 58.3 |  |  |  |
| GUUAAACAUGAGGAUCACCCAUGUAAGGAUAUGCUGCGGUCGCGAUGAAGUGACUGCAGCAGAAGGUACAAUUG [Mat - Mod of JL D52] (puzzle: Exclusion 1) |  |  |  | 88.8 |  |  |
| GAAAACGCAGAGGAUAUUCCAGAUCUAAGCUGCGAAGAAGGCUGCACAUGAGGAUCACCCAUGUGGUCUUUAAA [Maoned] (Eterna round: R96, puzzle: Exclusion 6) |  | 13.7 |  |  |  |  |
| UCUGGUCGAGGAUAUACAUGAGGAUCACCCAUGUGAUUAGCAGUCCUCGGACUGCAAUGUAGAAGGCGACCAGA [E3/2-A3] (Eterna round: R97, puzzle: Exclusion 3) | 894 |  | 393 |  |  |  |
| CGCAUGUAAGGAUAUUAGUAGUAGUCAGAAUAGACUAUUACUGAGAAGGUACAUGAGGAUCACCCAUGUCAGCG [Eli x4 4.17] (Eterna round: R97, puzzle: Exclusion 4) | 361 |  | 56.4 |  |  |  |
| GGUCUUCAAGUCAGGAUAUCGUCUAGUCGGUCUGGCGAGAAGGGACAUGAGGAUCACCCAUGUCGUCUCAUCAG [Ex4 #14] (Eterna round: R97, puzzle: Brourd's mod of Exclusion 4) | 30.6 |  | 19.9 |  |  |  |
| GGAAAGCAAGGAUAUACGAGGAGAAGGAGGAAAGUAAAAGGACAUGAGGAUCACCCAUGUAGAAGGUGCGAGAG [JR_Exclu2_Sub040] (puzzle: Exclusion 2) |  |  |  | 29.7 | 27.6 | 32.9 |
| CGAAGUACGUAAGGAUAUACCGUGAGGACAACGGUAGAAGGUACAACAACAUGAGGAUCACCCAUGUGGACCUCUCGGCGUUGU [Eternabot solution 19] (Eterna round: R96, puzzle: Exclusion NG 1) |  | 309 |  |  |  |  |
| UAAUUAAAUGUAGGAUAUCUGCACGAUUAGUGCAGAGAAGGACAUGAGGAUCACCCAUGUAGAUCAAAUUAAAUUAAUUUAAUU [ENG1/5-D1] (Eterna round: R96, puzzle: Exclusion NG 1) | 92.2 | 24.5 | 33.8 |  |  |  |
| CUUUUGUGAGGAUAUUAGUAGUAAAUAAAUAAAUUUACUACUGAGAAGGCACAUGAGGAUCACCCAUGUUCCUC [salish99_ex4_r3_060] (puzzle: Exclusion 4) |  |  |  | 33.7 |  |  |
| AGUACUAACACGGAAGUGUUAGUACAAUAAGCUUGUGUUACAUGAGGAUCACCCAUGUCCUCAUAAGCUCGUCUUAA [Mat - Sensor v3 - Turn-off var 2 - D62] (puzzle: Sensor v3, turn-off variant 2) |  |  |  | 487 | 48.4 | 40.2 |
| AUAUACGGAGGAUAUACUUGAGGAUCACCCAAGUGGGAUCCCGUUUGGGCGGUAAAUAGUAGAAGGCCGACCCA [jl-ex3-4.41 ViennaUCT mod] (Eterna round: R97, puzzle: Exclusion 3) | 31.3 |  | 29 |  |  |  |
| CUGAACCCGGUAGGAUAUAUUGUGGGCAAGCAUGGAACGACAUGAGGAUCACCCAUGUAAUUUAGGUAGAAGGGCCGAGAGAUU [Excl-NG2-LRO11] (Eterna round: R96, puzzle: Exclusion NG 2) | 70.7 | 66.3 | 67.3 |  |  |  |
| UUUAAUUUUUUUUUUUUACAAGCUUUUUGCUCGUCUUAUACAUGAGGAUCACCCAUGUAAAUGGGAAGUAAAUUAUC [JMF 50] (puzzle: Sensor v3, turn-off variant 2) |  |  |  | 207 | 59.5 | 93.1 |
| AAAGAGCAAGGAUAUACAUGAGGAUCACCCAUGUAGUACGUGAACCAGGUUUUCCUGAGUAGAAGGUGCAGACA [Dibira] (puzzle: Exclusion 3) |  |  |  | 28.1 |  |  |
| GAGUAGGGAGGAUAUACGUGCUCAAUCCCGGAAAGCGGGAAACAUGAGGAUCACCCAUGUAGAAGGCCCAUAAA [Riisen] (puzzle: Exclusion 2) |  |  |  | 68.4 |  |  |
| UGCCUACAUGAGGAUCACCCAUGUGAGGAUAUCCUGCGAGGAUCAAAAGAUCCUCGUGGGAGAAGGCGCCUGGA [Omei Ex1 B5] (Eterna round: R97, puzzle: Exclusion 1) | 19.9 |  | 16.2 |  |  |  |
| CAUGAUCUUCGGAUCAUGUACAUGAGGAUCACCCAUGUUACGAGCUGAUUUUCAUACAAGCUUUUUGCUCGUCUUAU [Sensor v3 - Turn-off variant 1 - 30] (puzzle: Sensor v3, turn-off variant 1) |  |  |  | 317 | 41.5 | 43 |
